Four molecules from paper PMC2884976 (The Journal of General Virology, 2007) can be followed below.

The chains are these.
B3: GST–M1 M+C domain fusion protein (domain or fragment)
chain: GDPNNMDKAVKLYRKLKREITFHGAKEISLSYSAGALASCMGLIYNRMGAVTTEVAFGLVCATCEQIADSQHRSHRQMVTTTNPLIRHENRMVLASTTAKAMEQMAGSSEQAAEAMEVASQARQMVQAMRTIGTHPSSSAGLKNDLLENLQAYQKRMGVQMQRFK
notes: not shown: GST, N-terminal, kept
B4: GST–M1 middle domain fusion protein (domain or fragment)
chain: GDPNNMDKAVKLYRKLKREITFHGAKEISLSYSAGALASCMGLIYNRMGAVTTEVAFGLVCATCEQIADSQHRSHRQM
notes: as for B3

Common to all, as to assay: pull-down
One assay addresses purified NP (influenza A virus A/PR/8/34 (PR8), UniProt P03466 1-498). The conditions noted are these: both partners purified.
Assay [1] has as its target T1, GST–M1 C-terminal domain fusion protein (influenza A virus A/PR/8/34 (PR8), UniProt P03485 165-252).
T1 construct: Cloned into pGEX-3X; not shown: GST, N-terminal, kept
The note with it: one partner purified.

The target in assay [2] is B4. The conditions noted are these: one partner purified.
Assay [3] deals with B3. The note with it: one partner purified.

purified NP, sequence (P03466 whole entry, the tested form may be a part): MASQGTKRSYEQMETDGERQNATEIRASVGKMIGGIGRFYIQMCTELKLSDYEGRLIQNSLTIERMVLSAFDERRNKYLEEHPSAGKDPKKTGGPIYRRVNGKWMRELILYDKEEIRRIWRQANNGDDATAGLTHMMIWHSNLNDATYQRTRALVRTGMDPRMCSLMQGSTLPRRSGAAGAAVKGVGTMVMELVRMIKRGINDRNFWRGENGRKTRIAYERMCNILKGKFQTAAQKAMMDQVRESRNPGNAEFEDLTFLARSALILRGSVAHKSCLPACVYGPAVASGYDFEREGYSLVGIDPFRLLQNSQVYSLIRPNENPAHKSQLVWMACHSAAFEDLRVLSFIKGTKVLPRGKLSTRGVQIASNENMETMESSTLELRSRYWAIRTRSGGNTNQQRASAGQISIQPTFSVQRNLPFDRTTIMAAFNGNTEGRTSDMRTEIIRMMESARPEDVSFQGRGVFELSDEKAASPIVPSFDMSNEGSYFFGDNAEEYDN

B1: GST–M1 N+M domain fusion protein (domain or fragment)
chain: MSLLTEVETYVLSIIPSGPLKAEIAQRLEDVFAGKNTDLEVLMEWLKTRPILSPLTKGILGFVFTLTVPSERGLQRRRFVQNALNGNGDPNNMDKAVKLYRKLKREITFHGAKEISLSYSAGALASCMGLIYNRMGAVTTEVAFGLVCATCEQIADSQHRSHRQM
notes: as for B3
B1: the binding result in the assay with purified NP is “binds”.

B2: untagged WT radiolabelled M1, in vitro translated (natural protein)
chain: MSLLTEVETYVLSIIPSGPLKAEIAQRLEDVFAGKNTDLEVLMEWLKTRPILSPLTKGILGFVFTLTVPSERGLQRRRFVQNALNGNGDPNNMDKAVKLYRKLKREITFHGAKEISLSYSAGALASCMGLIYNRMGAVTTEVAFGLVCATCEQIADSQHRSHRQMVTTTNPLIRHENRMVLASTTAKAMEQMAGSSEQAAEAMEVASQARQMVQAMRTIGTHPSSSAGLKNDLLENLQAYQKRMGVQMQRFK
For the molecule B2, the entries for the “binding activity relative to full-length GST–M1” value in assay [1], in assay [2] and in assay [3] were about 40%, 2 fold and 2 fold, respectively.

Consider B3, for which, in the assay with purified NP, the binding result was “binds”.

B4: the binding result with purified NP is recorded as “binds”.
